Fold diff data for one molecule are collected here from patent US20220332804A1 (CSL INNOVATION, published 2022).

Assay in all cases: SPR, KD relative to WT C2;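 note: biacore SPR at 37 °C, anti-C2 mAbs captured on anti-human IgG chips with alanine or serine point mutants of C2 as analyte, KD from 1:1 fit compared with wild-type C2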
(In general: Surface plasmon resonance follows binding to a sensor surface in real time, without labels.)

For one test, the target named is T1, human C2 M316A (human, UniProt P06681 21-752).
T1 sequence: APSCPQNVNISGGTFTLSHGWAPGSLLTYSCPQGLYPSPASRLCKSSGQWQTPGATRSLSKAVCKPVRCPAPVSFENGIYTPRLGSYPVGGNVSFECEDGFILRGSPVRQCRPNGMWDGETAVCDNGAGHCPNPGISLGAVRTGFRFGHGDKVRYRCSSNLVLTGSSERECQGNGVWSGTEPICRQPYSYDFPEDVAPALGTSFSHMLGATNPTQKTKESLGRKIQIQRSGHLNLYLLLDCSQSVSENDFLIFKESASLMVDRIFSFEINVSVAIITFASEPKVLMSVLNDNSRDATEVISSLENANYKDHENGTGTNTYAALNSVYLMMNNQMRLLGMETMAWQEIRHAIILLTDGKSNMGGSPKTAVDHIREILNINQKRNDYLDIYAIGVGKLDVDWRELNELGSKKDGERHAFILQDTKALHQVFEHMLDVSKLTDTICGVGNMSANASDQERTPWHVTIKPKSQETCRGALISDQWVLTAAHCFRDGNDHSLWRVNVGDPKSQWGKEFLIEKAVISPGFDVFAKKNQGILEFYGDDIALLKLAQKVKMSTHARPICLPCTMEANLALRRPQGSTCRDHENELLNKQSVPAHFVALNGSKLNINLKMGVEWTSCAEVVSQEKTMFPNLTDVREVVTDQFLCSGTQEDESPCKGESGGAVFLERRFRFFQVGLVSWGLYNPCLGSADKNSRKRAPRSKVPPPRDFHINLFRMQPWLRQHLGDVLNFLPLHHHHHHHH

A further test addresses T2, human C2 K430A (human, UniProt P06681 21-752).
T2 sequence: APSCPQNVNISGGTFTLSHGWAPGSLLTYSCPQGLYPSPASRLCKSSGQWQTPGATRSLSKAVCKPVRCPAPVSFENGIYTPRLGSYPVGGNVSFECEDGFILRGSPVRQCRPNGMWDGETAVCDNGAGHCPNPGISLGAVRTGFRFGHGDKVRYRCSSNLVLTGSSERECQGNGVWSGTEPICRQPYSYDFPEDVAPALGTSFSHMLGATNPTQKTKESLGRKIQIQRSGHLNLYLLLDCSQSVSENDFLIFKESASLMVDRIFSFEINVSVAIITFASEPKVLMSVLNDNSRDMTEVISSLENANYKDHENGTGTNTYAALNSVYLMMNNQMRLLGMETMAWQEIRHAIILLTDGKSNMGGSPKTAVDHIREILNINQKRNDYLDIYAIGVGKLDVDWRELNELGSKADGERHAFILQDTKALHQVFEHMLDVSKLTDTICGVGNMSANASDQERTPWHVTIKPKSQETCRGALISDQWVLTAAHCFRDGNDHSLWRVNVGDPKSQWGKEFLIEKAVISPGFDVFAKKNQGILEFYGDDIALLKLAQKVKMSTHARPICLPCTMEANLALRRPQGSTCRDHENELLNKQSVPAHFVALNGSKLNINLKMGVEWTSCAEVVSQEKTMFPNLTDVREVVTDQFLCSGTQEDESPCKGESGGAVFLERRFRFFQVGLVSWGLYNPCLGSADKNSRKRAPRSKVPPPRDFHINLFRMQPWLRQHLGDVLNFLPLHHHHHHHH

In a further test the target is T3, human C2 E433A (human, UniProt P06681 21-752).
T3 sequence: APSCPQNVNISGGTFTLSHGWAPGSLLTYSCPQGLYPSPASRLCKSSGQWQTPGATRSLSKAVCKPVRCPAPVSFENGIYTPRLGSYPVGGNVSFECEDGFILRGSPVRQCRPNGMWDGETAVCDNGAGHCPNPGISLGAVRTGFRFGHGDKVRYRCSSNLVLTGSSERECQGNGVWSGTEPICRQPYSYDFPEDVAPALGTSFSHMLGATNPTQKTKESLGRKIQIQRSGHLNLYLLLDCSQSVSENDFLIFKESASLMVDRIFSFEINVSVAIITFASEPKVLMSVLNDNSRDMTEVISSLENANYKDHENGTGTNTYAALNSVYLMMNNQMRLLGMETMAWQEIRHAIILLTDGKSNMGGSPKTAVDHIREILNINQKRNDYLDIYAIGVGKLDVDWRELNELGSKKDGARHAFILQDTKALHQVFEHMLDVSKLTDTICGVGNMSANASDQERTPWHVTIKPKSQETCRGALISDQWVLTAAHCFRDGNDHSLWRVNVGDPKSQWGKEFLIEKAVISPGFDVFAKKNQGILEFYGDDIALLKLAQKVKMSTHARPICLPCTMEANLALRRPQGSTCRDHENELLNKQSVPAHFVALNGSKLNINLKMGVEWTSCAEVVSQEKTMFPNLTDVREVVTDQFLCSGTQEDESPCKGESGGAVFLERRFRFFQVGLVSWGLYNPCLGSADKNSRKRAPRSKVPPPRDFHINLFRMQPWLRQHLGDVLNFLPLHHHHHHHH

The target in the next test is T4, human C2 A470S (human, UniProt P06681 21-752).
T4 sequence: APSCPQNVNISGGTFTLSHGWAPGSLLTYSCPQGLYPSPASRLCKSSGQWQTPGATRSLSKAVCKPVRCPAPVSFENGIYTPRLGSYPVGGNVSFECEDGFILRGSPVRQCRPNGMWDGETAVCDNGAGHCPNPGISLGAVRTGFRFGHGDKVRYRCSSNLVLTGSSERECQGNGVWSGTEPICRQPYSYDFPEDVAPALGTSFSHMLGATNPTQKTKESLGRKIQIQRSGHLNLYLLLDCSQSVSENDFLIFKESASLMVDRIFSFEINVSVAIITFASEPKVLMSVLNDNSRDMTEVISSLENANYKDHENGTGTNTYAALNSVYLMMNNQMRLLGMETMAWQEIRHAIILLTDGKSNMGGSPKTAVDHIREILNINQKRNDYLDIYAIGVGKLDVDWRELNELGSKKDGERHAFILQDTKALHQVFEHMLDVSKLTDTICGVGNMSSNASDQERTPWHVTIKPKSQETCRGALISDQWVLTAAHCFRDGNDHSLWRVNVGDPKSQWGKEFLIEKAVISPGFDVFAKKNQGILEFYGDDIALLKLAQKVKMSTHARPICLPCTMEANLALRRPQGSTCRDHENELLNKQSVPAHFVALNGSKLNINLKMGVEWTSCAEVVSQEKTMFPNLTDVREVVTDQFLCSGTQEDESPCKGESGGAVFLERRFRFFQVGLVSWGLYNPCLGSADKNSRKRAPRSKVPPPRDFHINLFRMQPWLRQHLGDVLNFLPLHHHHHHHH

B1: RF16-242 (antibody, human IgG4 S228P, lambda, V domains shown)
VH: EVQLLQSGAEVKKPGESLKISCKGSGYSFTSYWIGWVRQMPGKGLEWMGIIYPGDSDTRYSPSFQGQVTISADKSISTAYLQWSSLKASDTAMYYCARRGHYGDYFDYWGQGTLVTVSS
VL: SYELTQPPSVSVSPGQTARITCSGDALPKKYAYWYHQKSGQAPVLVIYEDRRRPSEIPERFSGSSSGTMATLTITGAQVEDEGVYFCYSRDRAGNQRVFGGGTQLTVLG
notes: pH-dependent anti-C2 antibody from a phage display library
Turning to B1, the Fold diff stood at 1 fold with human C2 M316A, 13 fold with human C2 K430A, 0 fold with human C2 E433A and 1 fold in the test with human C2 A470S.
